Values of other authors in publication PMC9785887.

How the values were obtained:
[1] = molecular target: Neuropilin-1 (Homo sapiens) (UniProt O14786)
[2] = molecular target: Integrin αvβ6 (Homo sapiens) (UniProt P06756)
Chain of UniProt P06756 (P06756 31-992, chain 1 of 2): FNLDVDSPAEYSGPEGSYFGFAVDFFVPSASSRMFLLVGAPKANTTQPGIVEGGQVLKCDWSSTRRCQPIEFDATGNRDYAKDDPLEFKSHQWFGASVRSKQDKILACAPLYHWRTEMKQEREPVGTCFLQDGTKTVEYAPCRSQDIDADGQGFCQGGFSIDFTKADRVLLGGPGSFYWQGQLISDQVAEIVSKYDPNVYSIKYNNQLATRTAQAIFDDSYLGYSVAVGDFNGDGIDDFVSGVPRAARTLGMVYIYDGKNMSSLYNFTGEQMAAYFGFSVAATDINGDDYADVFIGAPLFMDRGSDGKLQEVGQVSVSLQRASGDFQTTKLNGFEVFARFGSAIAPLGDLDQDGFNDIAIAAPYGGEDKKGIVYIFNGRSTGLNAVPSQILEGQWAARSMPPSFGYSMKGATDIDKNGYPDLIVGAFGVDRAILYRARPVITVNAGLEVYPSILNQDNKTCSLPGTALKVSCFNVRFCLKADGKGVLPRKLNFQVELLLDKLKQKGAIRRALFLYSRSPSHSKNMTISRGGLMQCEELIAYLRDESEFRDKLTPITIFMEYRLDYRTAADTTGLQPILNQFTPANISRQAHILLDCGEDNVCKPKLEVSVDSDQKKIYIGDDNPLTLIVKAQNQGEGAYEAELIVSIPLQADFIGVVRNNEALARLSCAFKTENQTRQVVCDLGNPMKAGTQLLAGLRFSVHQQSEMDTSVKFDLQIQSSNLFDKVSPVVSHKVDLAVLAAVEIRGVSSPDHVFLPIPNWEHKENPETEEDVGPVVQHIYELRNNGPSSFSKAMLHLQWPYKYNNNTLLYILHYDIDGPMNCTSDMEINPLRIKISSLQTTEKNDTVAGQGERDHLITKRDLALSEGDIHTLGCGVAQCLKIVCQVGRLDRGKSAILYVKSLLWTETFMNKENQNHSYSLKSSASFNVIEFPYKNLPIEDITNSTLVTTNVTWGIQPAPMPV
Chain of UniProt P06756 (P18564 22-709, chain 2 of 2, further chain): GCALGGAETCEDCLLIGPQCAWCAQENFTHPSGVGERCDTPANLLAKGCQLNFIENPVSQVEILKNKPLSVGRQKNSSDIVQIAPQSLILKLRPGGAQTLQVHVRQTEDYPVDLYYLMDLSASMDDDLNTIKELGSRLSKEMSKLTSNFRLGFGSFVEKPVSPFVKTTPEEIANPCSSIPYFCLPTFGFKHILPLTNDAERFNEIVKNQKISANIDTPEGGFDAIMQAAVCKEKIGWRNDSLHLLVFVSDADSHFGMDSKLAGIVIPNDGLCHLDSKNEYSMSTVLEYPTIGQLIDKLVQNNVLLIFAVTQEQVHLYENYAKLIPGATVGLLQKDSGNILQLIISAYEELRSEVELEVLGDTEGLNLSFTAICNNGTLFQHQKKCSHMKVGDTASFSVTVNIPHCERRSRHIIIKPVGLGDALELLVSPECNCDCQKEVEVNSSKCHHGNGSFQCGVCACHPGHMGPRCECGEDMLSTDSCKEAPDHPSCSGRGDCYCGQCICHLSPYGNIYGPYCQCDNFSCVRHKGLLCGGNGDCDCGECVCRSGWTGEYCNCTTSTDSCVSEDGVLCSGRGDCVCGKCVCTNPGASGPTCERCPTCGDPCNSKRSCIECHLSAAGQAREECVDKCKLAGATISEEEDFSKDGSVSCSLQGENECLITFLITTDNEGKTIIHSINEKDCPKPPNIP

Chain of UniProt O14786 (O14786 22-856): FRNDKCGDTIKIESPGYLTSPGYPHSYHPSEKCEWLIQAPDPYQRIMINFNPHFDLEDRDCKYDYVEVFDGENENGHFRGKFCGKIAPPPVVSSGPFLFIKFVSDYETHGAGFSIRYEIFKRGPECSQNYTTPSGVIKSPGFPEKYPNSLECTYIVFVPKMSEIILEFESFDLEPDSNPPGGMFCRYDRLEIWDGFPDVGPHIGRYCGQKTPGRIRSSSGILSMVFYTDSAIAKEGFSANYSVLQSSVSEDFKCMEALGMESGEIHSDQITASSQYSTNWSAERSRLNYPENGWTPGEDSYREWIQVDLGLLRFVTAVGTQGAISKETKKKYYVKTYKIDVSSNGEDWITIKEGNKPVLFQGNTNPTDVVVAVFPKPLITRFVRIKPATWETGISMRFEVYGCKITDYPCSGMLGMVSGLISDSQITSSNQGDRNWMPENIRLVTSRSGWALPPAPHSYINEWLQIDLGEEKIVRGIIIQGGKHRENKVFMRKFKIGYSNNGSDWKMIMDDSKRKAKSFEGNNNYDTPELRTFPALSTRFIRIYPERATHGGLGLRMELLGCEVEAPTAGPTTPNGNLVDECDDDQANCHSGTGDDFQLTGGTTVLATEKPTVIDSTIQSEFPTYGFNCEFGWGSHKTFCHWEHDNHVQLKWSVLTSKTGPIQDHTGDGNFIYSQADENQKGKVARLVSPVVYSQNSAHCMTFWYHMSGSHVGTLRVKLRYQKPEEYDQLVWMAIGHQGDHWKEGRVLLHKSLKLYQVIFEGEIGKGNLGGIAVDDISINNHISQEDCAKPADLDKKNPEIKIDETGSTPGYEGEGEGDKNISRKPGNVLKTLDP
Chain of Chromogranin A peptide CgA39-63 (P10645 57-81): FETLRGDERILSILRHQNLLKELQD

| Substance | Kd [1] | Ki [2] |
| --- | --- | --- |
| Chromogranin A 1-373 1-373 (from UniProt P10645) | 3.49 nM | – |
| Chromogranin A peptide CgA39-63 | – | 15.5 nM |
